# Test results from patent publication US20200093922A1 (AGENCY FOR SCIENCE TECHNOLOGY AND RESEARCH, published 2020).
# Residue numbers refer to the chain shown, from its start.
# T1: human ICOS (human, UniProt Q9Y6W8 21-140, limits assumed)
# T1 construct: also called hu ICOS
# T1 sequence (looked up): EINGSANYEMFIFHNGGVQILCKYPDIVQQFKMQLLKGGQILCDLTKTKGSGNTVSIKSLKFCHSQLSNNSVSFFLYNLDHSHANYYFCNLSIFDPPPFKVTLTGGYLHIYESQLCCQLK
# T2: human LAG-3 (human, UniProt P18627 23-450, limits assumed)
# T2 construct: also called hu LAG-3
# T2 sequence (looked up): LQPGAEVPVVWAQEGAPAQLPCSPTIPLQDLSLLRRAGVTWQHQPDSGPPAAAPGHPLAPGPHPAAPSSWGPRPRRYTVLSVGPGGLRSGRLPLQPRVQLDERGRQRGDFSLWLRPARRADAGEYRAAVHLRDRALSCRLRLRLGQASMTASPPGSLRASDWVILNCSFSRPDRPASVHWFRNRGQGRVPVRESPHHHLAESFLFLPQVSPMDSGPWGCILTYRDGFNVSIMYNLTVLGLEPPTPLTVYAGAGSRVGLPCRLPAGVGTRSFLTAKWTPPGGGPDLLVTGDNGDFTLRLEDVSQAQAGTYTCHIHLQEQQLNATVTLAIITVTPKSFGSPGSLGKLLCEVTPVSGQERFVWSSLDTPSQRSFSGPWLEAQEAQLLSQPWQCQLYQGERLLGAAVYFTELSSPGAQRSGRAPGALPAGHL
# T3: human PD-L2 (human, UniProt Q9BQ51 20-220, limits assumed)
# T3 construct: also called hu PD-L2
# T3 sequence (looked up): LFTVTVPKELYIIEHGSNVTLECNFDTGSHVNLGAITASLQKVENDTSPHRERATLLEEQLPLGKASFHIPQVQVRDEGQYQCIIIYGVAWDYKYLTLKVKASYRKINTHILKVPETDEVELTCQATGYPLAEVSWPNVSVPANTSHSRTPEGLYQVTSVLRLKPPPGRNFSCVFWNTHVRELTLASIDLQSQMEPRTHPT
# B1: anti-PD-L1 antibody clone C4, Fab format (Fab, V domains shown)
# VH: QVQLQQSGAEVKKPGSSVKVSCKASGGTFSSYAISWVRQAPGQGLEWMGRIIPILGIANYAQKFQGRVTITADKSTSTAYMELSSLRSEDTAVYYCARGGYGGNSLYAFDIWGQGTMVTVSS
# VL: QSVVTQPPSVSAAPGQKVTISCSGSSSNIGNNYVSWYQQLPGTAPKLLIYDNNERLSGIPDRFSGSKSGTSATLGISGLQTGDEADYYCGTWDSSLSVVVFGGGTKLTVL
# notes: Tested as Fab
# B2: anti-PD-L1 antibody C4 in IgG1 format (antibody, V domains shown)
# VH: B1 VH
# VL: B1 VL
# notes: also called C4 IgG1
# B3: anti-PD-L1 antibody C4 (format not stated) (antibody, V domains shown)
# VH: B1 VH
# VL: B1 VL
# B4: anti-PD-L1 antibody clone A1, Fab format (Fab, V domains shown)
# VH: QVQLQQSGAEVKKPGSSVKVSCKASGGTFSSYAISWVRQAPGQGLEWMGRIIPILGIANYAQKFQGRVTITADKSTSTAYMELSSLRSEDTAVYYCARGGSYGSLYAFDIWGQGTMVTVSS
# VL: QSVLTQPPSVSAAPGQRVSISCSGRSSNIASHDVFWYQQLPGTAPKIVMYETNKRPWGIPDRFSGSKSGTSATLDIAGLQTGDEADYYCGAWDSGLTGMLFGGGTKVTVL
# notes: From a human phage display library and tested as Fab; the Fab constant domains are not
# B5: anti-PD-L1 antibody H12_GL in IgG4 format (antibody, V domains shown)
# VH: B4 VH with Q5V, G99S, S101H, Y102G, G103Y, L105Y, Y106G, I110Y, M116L
# VL: QSVLTQPPSVSGAPGQRVTISCTGSSSNIGAGYDVHWYQQLPGTAPKLLIYGNSNRPSGVPDRFSGSKSGTSASLAITGLQAEDEADYYCQSYDSSLSGSYVVFGGGTKLTVL
# notes: IgG4; also called H12_GL-IgG4
# B6: anti-PD-L1 antibody clone C2, Fab format (Fab, V domains shown)
# VH: B4 VH with M116T
# VL: SYELTQPPSVSVAPGKTTRITCGGDNIGRKSVHWYQQRPGQAPLLLVYDDGDRPSGIPDRFSGSNSGNTATLTISGTQAMDEADYYCQAWDSTVVFGGGTRLTVL
# notes: Tested as Fab
# B7: anti-PD-L1 antibody H12_GL in IgG1 format (antibody, V domains shown)
# VH: B4 VH with Q5V, G99S, S101H, Y102G, G103Y, L105Y, Y106G, I110Y, M116L
# VL: B5 VL
# notes: H12 with its framework reverted to germline-like; IgG1; also called H12_GL-IgG1
# B8: anti-PD-L1 antibody H12 in IgG1 format (antibody, V domains shown)
# VH: EVQLVQSGAEVKKPGASVKVSCKASGGTFSSYAISWVRQAPGQGLEWMGRIIPILGIANYAQKFQGRVTITADKSTSTAYMELSSLRSEDTAVYYCARSGHGYSYGAFDYWGQGTL
# VL: B5 VL
# notes: IgG1; also called H12 (IgG1); H12-IgG1
# B9: anti-PD-L1 antibody H12 (format not stated) (antibody, V domains shown)
# VH: B8 VH
# VL: B5 VL
# B10: anti-PD-L1 antibody H12 in IgG4 format (antibody, V domains shown)
# VH: B8 VH
# VL: B5 VL
# notes: IgG4; also called H12-IgG4
# Experiments:
# [1] = molecular target: T4, murine PD-L1 coupled to human Fc (murine, UniProt Q9EP73 19-238, limits assumed); test: ELISA on coated murine PD-L1-Fc, Fab detected with anti-human Fab-HRP, absorbance 450-670 nm
# T4 construct: also called murine PD-L1-Fc; mouse PD-L1 coupled to Fc; not shown: human Fc
# Method: (§1) After 90 minutes at room temperature under agitation and extensive washes, a goat anti-human Fab antibody coupled to HRP was added. One hour later, plates were washed and TMB substrate added. The reaction was stopped with 1M HCl and optical density measured at 450 nm with a reference at 670 nm.
# biotinylated human PD-L1 [2] = molecular target: T5, biotinylated human PD-L1 (human, UniProt Q9NZQ7 19-238, limits assumed, biotinylated (site not stated)); test: blocking ELISA: biotinylated human PD-L1 pre-incubated with Fab, then added to coated human PD-1-Fc (blocked partner), streptavidin-HRP
# [3] = molecular target: T6, biotinylated murine PD-L1 (murine, UniProt Q9EP73 19-238, limits assumed, biotinylated (site not stated)); test: blocking ELISA: biotinylated murine PD-L1 pre-incubated with Fab, then added to coated murine PD-1-Fc (blocked partner), streptavidin-HRP
# [4] = molecular target: T7, PD-L1 on MDA-MB-231 human breast cancer cells (human, UniProt Q9NZQ7 19-290); test: flow cytometry on MDA-MB-231 cells expressing PD-L1, MFI against IgG1 (nM)
# T7 construct: whole, on cells; also called cells expressing PD-L1
# biotinylated human PD-L1 [5] = molecular target: T5, biotinylated human PD-L1; test: ELISA: antibody coated at 2 ug/mL, biotinylated human PD-L1 titrated (x axis Human PD-L1, nM), streptavidin-HRP
# Method: Binding was measured by ELISA. Antibodies were coated onto maxisorp plates at 2 μg/mL in coating buffer and incubated overnight at 4° C. The next day, plates were washed with wash buffer (PBS+0.05% Tween-20), and blocker with casein for 1 hour, at room temperature. Plates were then washed again using wash buffer. […] Plates were then washed again using wash buffer. […] Plates were then washed again using wash buffer. Finally, TMB was added to develop the ELISA; TMB conversion by HRP was stopped using 1M H-Cl.
# [6] = molecular target: PD-L1 (blocking ELISA of Example 13) (Homo sapiens (Human), UniProt Q9NZQ7 19-238); test: blocking ELISA: antibody pre-incubated with PD-L1, added to coated PD-1 (blocked partner), PD-1-bound PD-L1 detected
# biotinylated human PD-L1 [7] = molecular target: T5, biotinylated human PD-L1; test: avidity ELISA: biotinylated human PD-L1 at 0.2 ug/mL on neutravidin, antibody titrated (x axis IgG, nM), anti-human Fc-HRP
# Method: Neutravidin was coated onto maxisorp plates at 2 μg/mL in coating buffer and incubated overnight at 4° C. The next day, plates were washed with wash buffer (PBS+0.05% Tween-20), and blocker with casein for 1 hour, at room temperature. Plates were then washed again using wash buffer. […] Plates were then washed again using wash buffer. The different antibodies were then added at various concentrations, and incubated for 1 hour at room temperature. Plates were then washed again using wash buffer. Anti-human Fc-HRP was then added and incubated for 1 hour at room temperature. Plates were then washed again using wash buffer. Finally, TMB was added to develop the ELISA; TMB conversion by HRP was stopped using 1M H-Cl.
# [8] = molecular target: T8, human PD-L1 (ELISA antigen, construct not stated) (human, UniProt Q9NZQ7 19-238, limits assumed); test: ELISA of Fab clones with human PD-L1 as antigen
# T8 construct: The construct is not described; also called hu PD-L1
# [9] = molecular target: T9, human PD-L1 coupled to human Fc (human, UniProt Q9NZQ7 19-239, limits assumed); test: ELISA on coated human PD-L1-Fc, Fab detected with anti-human Fab-HRP, absorbance 450-670 nm
# T9 construct: also called human PD-L1-Fc; not shown: human Fc
# Method: as §1
# [10] = molecular target: T10, human PD-L1 expressed on transfected HEK 293 cells (human, UniProt Q9NZQ7 19-290); test: flow cytometry blocking assay: antibody mixed with human PD-1-PE (blocked partner), added to HEK293 cells transfected with human PD-L1
# T10 construct: whole, on cells; also called PD-L1 transfected cells; HEK293-6E cells transfected with human PD-L1
# Excerpt: Cells were washed 3 times with PBS and all data were collected on a BD FACSCanto II (BD Bioscience) and analysed on BD FACSDiva software (BD Bioscience).
# [11] = molecular target: T6, biotinylated murine PD-L1; test: blocking ELISA of murine PD-L1 binding to murine PD-1 (blocked partner), Example 3
# human CTLA-4 = molecular target: T11, human CTLA-4 (human, UniProt P16410 36-162, limits assumed); test: ELISA on coated antigen (sheet label huCTL-A4)
# T11 construct: also called hu CTL-A4
# human BTLA = molecular target: T12, human BTLA (human, UniProt Q7Z6A9 31-151, limits assumed); test: ELISA on coated antigen (sheet label huBTLA-Fc)
# T12 construct: also called hu BLTA
# human CD28 = molecular target: T13, human CD28 (human, UniProt P10747 19-152, limits assumed); test: ELISA on coated antigen (sheet label huCD28-Fc)
# T13 construct: also called hu CD28
# human ICOS = molecular target: T1, human ICOS; test: ELISA on coated antigen (sheet label huICOS-Fc)
# [12] = molecular target: T14, human PD-1 (ELISA antigen of Example 8) (human, UniProt Q15116 25-167, limits assumed); test: ELISA on coated antigen (sheet label huPD-1-Fc)
# T14 construct: also called hu PD-1
# human LAG-3 = molecular target: T2, human LAG-3; test: ELISA on coated antigen (sheet label huLAG-3-Fc)
# human PD-L2 = molecular target: T3, human PD-L2; test: ELISA on coated antigen (sheet label huPD-L2-Fc)
# human TIM-3 = molecular target: T15, human TIM-3 (human, UniProt Q8TDQ0 22-200, limits assumed); test: ELISA on coated antigen (sheet label huTIM-3-Fc)
# T15 construct: also called hu TIM-3
# T4 sequence (Q9EP73 19-238 limits assumed): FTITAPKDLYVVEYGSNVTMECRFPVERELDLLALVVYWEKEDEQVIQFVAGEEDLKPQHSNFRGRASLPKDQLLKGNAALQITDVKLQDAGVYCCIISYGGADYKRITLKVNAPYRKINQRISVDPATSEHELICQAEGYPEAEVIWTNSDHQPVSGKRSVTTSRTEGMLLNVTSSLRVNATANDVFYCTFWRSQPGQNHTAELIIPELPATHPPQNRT
# T6 sequence (Q9EP73 19-238 limits assumed): as above
# T5 sequence (Q9NZQ7 19-238 limits assumed): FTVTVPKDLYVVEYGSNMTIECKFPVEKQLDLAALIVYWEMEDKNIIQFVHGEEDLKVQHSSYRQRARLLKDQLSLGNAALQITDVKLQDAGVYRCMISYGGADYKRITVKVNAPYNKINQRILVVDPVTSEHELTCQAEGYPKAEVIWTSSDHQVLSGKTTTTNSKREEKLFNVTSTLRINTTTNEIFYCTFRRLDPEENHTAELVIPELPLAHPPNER
# T10 sequence (Q9NZQ7 19-290): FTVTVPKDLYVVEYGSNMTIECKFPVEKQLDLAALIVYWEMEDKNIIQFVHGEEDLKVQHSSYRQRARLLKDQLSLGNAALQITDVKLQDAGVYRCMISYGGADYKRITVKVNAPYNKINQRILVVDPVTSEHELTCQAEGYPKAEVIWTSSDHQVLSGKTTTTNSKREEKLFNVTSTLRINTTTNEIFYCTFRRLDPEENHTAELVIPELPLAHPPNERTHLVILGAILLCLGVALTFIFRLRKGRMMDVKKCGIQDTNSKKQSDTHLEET
# PD-L1 (blocking ELISA of Example 13), sequence (Q9NZQ7 19-238 limits assumed): as the sequence (Q9NZQ7 19-238 limits assumed) above
# T7 sequence (Q9NZQ7 19-290): as the sequence (Q9NZQ7 19-290) above
# T8 sequence (Q9NZQ7 19-238 limits assumed): as the sequence (Q9NZQ7 19-238 limits assumed) above
# T11 sequence (P16410 36-162 limits assumed): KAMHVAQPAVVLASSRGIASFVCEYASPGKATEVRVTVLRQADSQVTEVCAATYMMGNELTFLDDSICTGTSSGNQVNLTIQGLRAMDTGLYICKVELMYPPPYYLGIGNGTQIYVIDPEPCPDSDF
# T12 sequence (Q7Z6A9 31-151 limits assumed): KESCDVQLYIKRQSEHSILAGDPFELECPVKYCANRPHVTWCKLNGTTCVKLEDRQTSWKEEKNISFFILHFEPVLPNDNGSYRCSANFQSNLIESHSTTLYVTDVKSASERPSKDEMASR
# T9 sequence (Q9NZQ7 19-239 limits assumed): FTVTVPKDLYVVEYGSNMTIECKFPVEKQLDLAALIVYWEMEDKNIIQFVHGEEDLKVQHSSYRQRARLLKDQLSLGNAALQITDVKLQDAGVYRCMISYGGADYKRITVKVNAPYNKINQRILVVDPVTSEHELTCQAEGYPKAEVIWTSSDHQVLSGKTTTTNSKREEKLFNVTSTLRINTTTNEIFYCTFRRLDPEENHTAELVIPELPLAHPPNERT
# T14 sequence (Q15116 25-167 limits assumed): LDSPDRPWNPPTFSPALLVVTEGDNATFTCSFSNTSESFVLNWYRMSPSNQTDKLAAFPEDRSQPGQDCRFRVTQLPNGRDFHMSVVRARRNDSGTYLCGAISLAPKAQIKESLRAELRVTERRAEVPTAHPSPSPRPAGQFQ
binder,measurement,setting,value
B1,binding result,[1],binds
same,IC50 (read off the curve),biotinylated human PD-L1 [2],~50 nM
same,binding result,[3],binds
B2,EC50 (read off the curve),[4],~200 nM
B3,EC50 (read off the curve),biotinylated human PD-L1 [5],~0.8 nM
same,IC50 (read off the curve),[6],~2 nM
same,EC50 (read off the curve),biotinylated human PD-L1 [7],~1 nM
B4,binding result,[8],binds
same,binding result,[9],binds
same,binding result,[1],binds
same,binding result,biotinylated human PD-L1 [2],binds
same,binding result,[3],binds
B5,IC50 (read off the curve),[10],~8 nM
B6,binding result,[1],binds
same,IC50 (read off the curve),biotinylated human PD-L1 [2],~50 nM
same,binding result,[3],binds
B7,IC50 (read off the curve),[10],~8 nM
B8,EC50 (read off the curve),[4],~200 nM
same,IC50 (read off the curve),[11],~1 nM
same,IC50 (read off the curve),[10],~8 nM
B9,binding result,human CTLA-4,no binding
same,binding result,human BTLA,no binding
same,binding result,human CD28,no binding
same,binding result,human ICOS,no binding
same,binding result,[12],no binding
same,binding result,human LAG-3,no binding
same,binding result,human PD-L2,no binding
same,binding result,human TIM-3,no binding
same,EC50 (read off the curve),biotinylated human PD-L1 [5],~0.4 nM
same,IC50 (read off the curve),[6],~2 nM
same,EC50 (read off the curve),biotinylated human PD-L1 [7],~0.1 nM
B10,IC50 (read off the curve),[10],~8 nM
